This is an account of results in US20150203556A1 (UAB RESEARCH FOUNDATION, published 2015).

As a reminder, the koff is the first-order rate constant of dissociation. As a reminder, the kon is the second-order rate constant of association.

Assay [1] addresses T1, IL-20/IL-20R2 binary complex (human, UniProt Q9NYY1 25-176; Q6UXL0 30-230).
T1 construct: also called 20 + 20R2; IL-20+soluble IL-20R2
T1 chain 1: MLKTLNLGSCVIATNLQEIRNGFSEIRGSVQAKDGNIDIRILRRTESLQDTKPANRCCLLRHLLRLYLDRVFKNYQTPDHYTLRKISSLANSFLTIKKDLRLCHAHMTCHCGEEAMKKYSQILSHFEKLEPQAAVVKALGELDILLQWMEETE
T1 chain 2: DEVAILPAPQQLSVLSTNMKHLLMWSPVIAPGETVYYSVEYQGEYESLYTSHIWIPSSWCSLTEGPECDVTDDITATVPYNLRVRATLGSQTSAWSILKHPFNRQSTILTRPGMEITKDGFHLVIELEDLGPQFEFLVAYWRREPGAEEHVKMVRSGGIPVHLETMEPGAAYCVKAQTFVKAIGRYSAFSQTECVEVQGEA
Description: SPR co-injection: IL-20 fixed at 250 nM with IL-22R1 (1000-7.81 nM) over amine coupled IL-20R2; 250 nM IL-20 sensorgram subtracted; 1:1 fit, apparent value. Here is the method: (§1) FIGS. 12A-12H are graphs showing IL19/IL-20 receptor interactions and complex stability. SPR sensorgrams, data fits (black lines), KD values, and residual errors obtained for complexes described at the top of each panel. Panels are labeled as injected soluble proteins, followed by a semicolon (:), then the protein coupled to chip surface, IL-20R1 or IL-20R2. FIGS. 12A and 12B show injection of IL-19 and IL-20 (max conc.=10 μM, 2 fold diluted to 0.625 μM) over IL-20R1. FIGS. 12C and 12D show injection of IL-19 (max conc.=500 nM, 2-fold diluted to 3.91 nM) or IL-20 (max conc.=2000 nM, 2-fold diluted to 62.5 nM) over IL-20R2. FIGS. 12E-12H show IL-19 and IL-20 (fixed at 250 nM) mixed with different concentrations of IL-20R1, or IL-22R1, (max conc.=1000 nM, 2-fold diluted to 7.81 nM) and injected over IL-20R2. To estimate R1 chain affinity/complex stability, the contribution of the ligand was removed by using the 250 nM IL-19, or IL-20, sensorgram as the blank subtraction. All sensorgrams were fit to 1:1 binding models.
(§2) Surface Plasmon Resonance Experiments SPR experiments were performed on Biacore T-100, and T-200, (GE healthcare, Waukesha, Wis.) systems. […] Soluble proteins were injected for 75-90 seconds (30 uL/min) over the surfaces, and the dissociation phase was followed for 75-120 seconds depending on the stability of the complex being analyzed. […]

Assay [2] concerns the target T1, IL-20/IL-20R2 binary complex. Description: SPR co-injection: IL-20 fixed at 250 nM with IL-22R1 (1000-7.81 nM) over amine coupled IL-20R2; 250 nM IL-20 sensorgram subtracted; 1:1 fit, apparent KD (KDapp). Here is the method:
as §1, §2

In a further assay the target is T2, IL-22 (Homo sapiens (Human), UniProt Q9GZX6 35-179, limits assumed).
T2 construct: also called IL-22 wt
T2 sequence: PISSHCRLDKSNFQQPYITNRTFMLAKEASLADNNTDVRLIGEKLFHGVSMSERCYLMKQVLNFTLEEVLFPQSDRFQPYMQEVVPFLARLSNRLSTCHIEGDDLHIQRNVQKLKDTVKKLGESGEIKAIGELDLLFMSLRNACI
Briefly: SPR, IL-22 as analyte over IL22R1ddq-FCkh (MONO) as ligand. (In general: In SPR one partner is held on a chip, and binding of the other changes the refractive index at the surface.)

Assay [3] addresses T3, IL-19 bound on IL-20R2-fc (IL-19/IL-20R2-fc binary complex) (human, UniProt Q9UHD0 25-177). Briefly: SPR co-injection: IL-19 fixed at 250 nM with IL-20R1 (1000-7.81 nM) over IL-20R2-fc; 250 nM IL-19 sensorgram subtracted; 1:1 fit, apparent value. Here is the method: as §1, §2
The target of assay [4] is T4, IL-20 bound on IL-20R2-fc (IL-20/IL-20R2-fc binary complex) (human, UniProt Q9NYY1 25-176). Briefly: SPR co-injection: IL-20 fixed at 250 nM with IL-20R1 (1000-7.81 nM) over IL-20R2-fc; 250 nM IL-20 sensorgram subtracted; 1:1 fit, apparent KD (KDapp). Here is the method:
(§3) To estimate R1 chain affinity/complex stability, the contribution of the ligand was removed by using the 250 nM IL-19, or IL-20, sensorgram as the blank subtraction. All sensorgrams were fit to 1:1 binding models.
(§4) To estimate the stability of IL-20 (IL-20/IL-20R1/IL-20R2 and IL-20/IL-22R1/IL-20R2) and IL-19 (IL-19/IL-20R1/IL-20R2) ternary complexes (FIG. 1), IL-19, or IL-20, was co-injected with soluble IL-20R1 over a biacore chip coupled with IL-20R2. […] The same results, although with different KDapp values, were obtained by evaluating ternary complex stability by injecting soluble IL-20R2 and IL19, or IL-20, over biacore chip surfaces of IL-20R1 or IL-22R1 (FIG. 13).
(§5) Surface Plasmon Resonance Experiments SPR experiments were performed on Biacore T-100, and T-200, (GE healthcare, Waukesha, Wis.) systems. Soluble IL-20R2 was amine coupled (100-130 RU) to CM5 research grade biacore chips in 10 mM sodium acetate, pH 5.0. IL-20R1-FC and IL-20R2-FC were coupled (60-120 RU) to CM5 chips using an anti-FC Ab coupling kit using the manufacturer's instructions (GE healthcare, Waukesha, Wis.). […] Soluble proteins were injected for 75-90 seconds (30 uL/min) over the surfaces, and the dissociation phase was followed for 75-120 seconds depending on the stability of the complex being analyzed. […]

The target of assay [5] is T3, IL-19 bound on IL-20R2-fc …. Briefly: SPR co-injection: IL-19 fixed at 250 nM with IL-20R1 (1000-7.81 nM) over IL-20R2-fc; 250 nM IL-19 sensorgram subtracted; 1:1 fit, apparent KD (KDapp). Here is the method: as §3, §4, §5
In assay [6] the target is T4, IL-20 bound on IL-20R2-fc …. Description: SPR co-injection: IL-20 fixed at 250 nM with IL-20R1 (1000-7.81 nM) over IL-20R2-fc; 250 nM IL-20 sensorgram subtracted; 1:1 fit, apparent value. Here is the method: as §1, §2
The next assay deals with T5, IL-19 (human, UniProt Q9UHD0 25-177).
T5 construct: also called Interleukin-19; IL-19a
T5 sequence: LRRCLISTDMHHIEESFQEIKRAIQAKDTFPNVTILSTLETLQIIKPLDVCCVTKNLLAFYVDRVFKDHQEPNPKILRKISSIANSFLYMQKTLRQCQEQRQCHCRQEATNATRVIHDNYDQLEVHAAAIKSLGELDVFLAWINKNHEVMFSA
Description: SPR (Biacore), IL-19 (500-3.91 nM) over IL-20R2-fc captured by anti-FC Ab, 1:1 fit. Here is the method:
as §1, with “SPR” for “FIGS. 12A-12H are graphs showing IL19/IL-20 receptor interactions and complex stability. SPR”
as §5, with “Wis.). All binding experiments were performed in running buffer consisting of 10 mM Hepes, pH 7.4, 150 mM NaCl, 0.04% P20, and 0.1 mg/mL bovine serum albumin (Sigma, St. Louis, Mo.). No regeneration was performed between sample injections on IL-20R2 amine-coupled surfaces.” for “Wis.).”
IL-19/IL-20R2 and IL-20/IL-20R2 interactions were determined by SPR methods with IL-20R2 attached to a biacore chip by amine coupling, or as an IL-20R2-FC fusion protein.

For assay [7], the target named is T6, IL-20 (human, UniProt Q9NYY1 25-176).
T6 construct: The crystal model holds residues 24-176; also called Interleukin-20; IL-20b
T6 sequence: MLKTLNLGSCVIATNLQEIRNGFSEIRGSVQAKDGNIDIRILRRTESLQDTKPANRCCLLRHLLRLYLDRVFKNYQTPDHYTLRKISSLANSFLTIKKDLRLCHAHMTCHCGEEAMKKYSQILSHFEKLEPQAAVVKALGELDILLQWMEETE
Description: SPR (Biacore), IL-20 (2000-62.5 nM) over IL-20R2-fc captured by anti-FC Ab, 1:1 fit.

Assay [8] deals with T6, IL-20. Description: SPR, site KD as listed in Table 5.
Assay [9] has as its target T6, IL-20. Briefly: SPR, IL-20 over IL-20R2 (FIG. 12D). Here is the method: as §1, §2

B1: IL-22R1 (sIL-22R1DDQ) (receptor)
chain: HAPEDPSDLLQHVKFQSSNFENILTWDSGPEGTPDTVYSIEYKTYGERDWVAKKGCQRITRKSCDLTVETGDLQELYYARVTAVSAGGRSATKMTDRFSSLQHTTLKPPDVTCISKVRSIQMIVHPTPTPIRAGDGHRLTLEDIFHDLFYHLELQVNRTYQMHLGGKQREYEFFGLTPDTEFLGTIMICVPTWAKESAPYMCRVKTLPDRT
For the molecule B1, in [1], the koff stood at 0.0893 s⁻¹ and the kon is 65500 M⁻¹ s⁻¹. Moreover, the Kd in [2] amounted to 1.36 µM.

B2: IL22R1ddq-FCkh (MONO) (Fc fusion)
chain: AHAPEDPSDLLQHVKFQSSNFENILTWDSGPEGTPDTVYSIEYKTYGERDWVAKKGCQRITRKSCDLTVETGDLQELYYARVTAVSAGGRSATKMTDRFSSLQHTTLKPPDVTCISKVRSIQMIVHPTPTPIRAGDGHRLTLEDIFHDLFYHLELQVNRTYQMHLGGKQREYEFFGLTPDTEFLGTIMICVPTWAKESAPYMCRVKTLPDRTWTYSGSGGGGPSVFIFPPKIKDVLMISLSPIVTCVVVDVSEDDPDVQISWFVNNVEVHTAQTQTHREDYNSTLRVVSALPIQHQDWMSGKEFKCKVNNKDLPAPIERTISKPKGSVRAPQVYVLPPPCEEMTKKQVTLYCMVTDFMPEDIYVEWTNNGKTELNYKNTEPVLDSDGSYFMYSKLRVEKKNWVERNSYSCSVVHEGLHNHHTTKSFSRTPGKGLEASGGLNDIFEAQKIEWHEGTGHHHHHH
In the assay with IL-22, B2 showed a Kd of 0.00334 µM.

B3: soluble IL-20R1 (receptor)
chain: VPCVSGGLPKPANITFLSINMKNVLQWTPPEGLQGVKVTYTVQYFIYGQKKWLNKSECRNINRTYCDLSAETSDYEHQYYAKVKAIWGTKCSKWAESGRFYPFLETQIGPPEVALTTDEKSISVVLTAPEKWKRNPEDLPVSMQQIYSNLKYNVSVLNTKSNRTWSQCVTNHTLVLTWLEPNTLYCVHVESFVPGPPRRAQPSEKQCARTLKDQSS
In the case of B3, the koff in assay [3] stood at 0.139 s⁻¹; in assay [6], 0.0171 s⁻¹. The kon in assay [3] was found to be 44500 M⁻¹ s⁻¹; in [6], 53700 M⁻¹ s⁻¹. For the same molecule, the Kd is 0.319 µM in assay [4] and 3.12 µM in assay [5].

B4: IL-20R2-FC (Fc fusion)
chain: DEVAILPAPQQLSVLSTNMKHLLMWSPVIAPGETVYYSVEYQGEYESLYTSHIWIPSSWCSLTEGPECDVTDDITATVPYNLRVRATLGSQTSAWSILKHPFNRQSTILTRPGMEITKDGFHLVIELEDLGPQFEFLVAYWRREPGAEEHVKMVRSGGIPVHLETMEPGAAYCVKAQTFVKAIGRYSAFSQTECVEVQGEAGSGGGGPSVFIFPPKIKDVLMISLSPIVTCVVVDVSEDDPDVQISWFVNNVEVHTAQTQTHREDYNSTLRVVSALPIQHQDWMSGKEFKCKVNNKDLPAPIERTISKPKGSVRAPQVYVLPPPEEEMTKKQVTLTCMVTDFMPEDIYVEWTNNGKTELNYKNTEPVLDSDGSYFMTSKLRVEKKNWVERNSYSCSVVHEGLHNHHTTKSFGGCGTPASGGLNDIFEAQKIEWHE
notes: also called IL-20-FC
B4: the Kd in the assay with IL-19 was 0.105 µM; with IL-20 [7] it was 0.686 µM; in the assay with IL-20 [8], 0.687 µM; with IL-20 [9], 0.697 µM. The results for the koff in the assay with IL-19 and with IL-20 [7] were 0.0242 s⁻¹ and 0.219 s⁻¹, respectively. The kon with IL-19 amounted to 230000 M⁻¹ s⁻¹; in the assay with IL-20 [7] it was 319000 M⁻¹ s⁻¹.
